The record followed here is US20220017612A1 (TILOS THERAPEUTICS, published 2022).

Assay [1] has as its target T1, soluble complex of the ECR3E fragment of human LTBP1 and human LAP-TGFβ1 (human, UniProt Q14766 1286-1466, limits assumed).
T1 construct: domain: third cysteine-rich domain of human LTBP1, flanked by EGFR-like domains; also called ECR3E-LAP-TGFβ1; ECR3E-LAP
As to the kind of experiment: bio-layer interferometry, biotinylated antibody on streptavidin tip. Here is the method: A streptavidin-functionalized tip was equilibrated in binding buffer (10 mM sodium phosphate, 150 mM sodium chloride, 1% (w/v) bovine serum albumin, 0.05% (w/v) sodium azide, pH 7.4) and dipped in a 5 μg/mL solution of biotinylated antibody (i.e., 20E6_H0.2aL1_hIgG1, murine 16F4, or MHG8, a GARP-specific murine IgG2a described in Lienart et al. Science 2018; 362:952-956) in binding buffer for 30 seconds to load the tip with antibody. The antibody-loaded tip was then washed in binding buffer and placed in a solution containing 0-24 nM of a fusion protein containing a human IgG1 Fc domain fused to either human LAP-TGFβ1, the soluble GARP-LAP-TGFβ1 complex, or the soluble ECR3E-LAP-TGFβ1 complex. The antigen was allowed to bind to antibody for 5 minutes (association phase), and then the tip was moved to binding buffer (dissociation phase). The binding and dissociation data for 16F4 and MHG8 were well-fit by a 1:1 binding model. The association and dissociation phases for 20E6_H0.2aL1_hIgG1 antibody were fit to a 2:1 heterogenous ligand binding model to determine the binding rate constants.
As shown in FIG. 24 and Table 21, the 20E6_H0.2aL1_hIgG1 antibody bound to free LAP-TGFβ1 and the soluble GARP-LAP-TGFβ1 complex with nanomolar affinity, but not to the ECR3E-LAP-TGFβ1 complex. […]
In general terms: In BLI a coated tip is dipped into the sample, and binding shifts an interference pattern.

The target in assay [2] is T2, fusion protein of a human IgG1 Fc domain and human LAP-TGFβ1 (human, UniProt P01137 30-390).
T2 construct: printed both as Fc-huB1 and LAP-TGFβ-Fc; also called Fc-huB1; Fc-human LAP
T2 sequence (P01137 30-390 limits assumed): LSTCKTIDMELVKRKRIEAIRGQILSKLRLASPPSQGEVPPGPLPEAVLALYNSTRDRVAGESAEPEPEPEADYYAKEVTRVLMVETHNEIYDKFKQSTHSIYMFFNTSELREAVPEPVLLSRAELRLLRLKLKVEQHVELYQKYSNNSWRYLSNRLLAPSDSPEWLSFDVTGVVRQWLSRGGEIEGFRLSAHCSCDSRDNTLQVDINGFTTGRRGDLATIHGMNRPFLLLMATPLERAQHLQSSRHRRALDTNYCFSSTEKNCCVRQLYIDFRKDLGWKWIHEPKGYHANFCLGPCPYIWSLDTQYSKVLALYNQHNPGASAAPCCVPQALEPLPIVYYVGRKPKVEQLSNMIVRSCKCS
As to the kind of experiment: BLI, 2:1 model, component 1. Here is the method:
(§1) The 20E6_H0.2aL1_IgG1 antibody was biotinylated using EZ-Link SulfoNHS-LC-Biotin (ThermoFisher). A streptavidin-functionalized tip was equilibrated in binding buffer (10 mM sodium phosphate, 150 mM sodium chloride, 1% (w/v) bovine serum albumin, 0.05% (w/v) sodium azide, pH 7.4) and dipped in a 10 μg/mL solution of biotinylated anti-LAP in binding buffer for 30 seconds to load the tip with antibody. The antibody-loaded tip was then washed in binding buffer and placed in a solution containing 0-24 nM of a fusion protein having a human IgG1 Fc domain fused to either human LAP-TGFβ1, human LAP-TGFβ2 or human LAP-TGFβ3. The antigen was allowed to bind to antibody for 5 minutes (association phase), and then the tip was moved to binding buffer (dissociation phase). The association and dissociation phases were fit to a 2:1 heterogenous ligand binding model to determine the binding rate constants. As shown in FIG. 21A and Table 17, 20E6_H0.2aL1_IgG1 bound with sub-nanomolar affinity to human LAP-TGFβ1, but not to human LAP-TGFβ2 (FIG. 21B) or LAP-TGFβ3 (FIG. 21C).
(§2) The binding of 20E6_H0.2aL1_IgG1 antibody and 20E6_H0.2aL1_hIgG4mut antibody to LAP-TGFβ1 of various species was examined by bio-layer interferometry using the method described in Example 12, except that the antibody-loaded tip was placed in a solution containing 0-24 nM of a fusion protein having a human IgG1 Fc domain fused to either mouse, rat, cynomolgus monkey, or human LAP-TGFβ1.

Assay [3] has as its target T3, fusion protein of a human IgG1 Fc domain and rat LAP-TGFβ1 (human; rat, UniProt P17246 30-390, limits assumed).
T3 construct: also called rat LAP-TGFβ-Fc
As to the kind of experiment: BLI, 2:1 model, component 1. As to the method:
as §1, §2

Assay [4] deals with T4, fusion protein of a human IgG1 Fc domain and mouse LAP-TGFβ1 (human; mouse, UniProt P04202 30-390).
T4 construct: also called mouse LAP-TGFβ-Fc
T4 sequence (P04202 30-390 limits assumed): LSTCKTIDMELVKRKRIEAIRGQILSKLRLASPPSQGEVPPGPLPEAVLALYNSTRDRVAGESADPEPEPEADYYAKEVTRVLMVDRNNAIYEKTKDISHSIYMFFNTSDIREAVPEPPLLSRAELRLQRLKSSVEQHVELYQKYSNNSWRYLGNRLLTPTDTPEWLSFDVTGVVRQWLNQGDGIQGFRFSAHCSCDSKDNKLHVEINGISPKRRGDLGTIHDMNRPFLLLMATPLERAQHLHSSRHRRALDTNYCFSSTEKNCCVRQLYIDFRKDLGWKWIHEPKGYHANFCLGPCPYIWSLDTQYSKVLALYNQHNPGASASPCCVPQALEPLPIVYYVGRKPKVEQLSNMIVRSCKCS
As to the kind of experiment: BLI, 2:1 model, component 1. As to the method: as §1, §2

In assay [5] the target is T2, fusion protein of a human IgG1 Fc …. As to the kind of experiment: BLI, signal change on binding. Here is the method: Binding to human TGFβ1 of a subset of candidates was also tested by bio-layer interferometry (Octet). A streptavidin coated tip was equilibrated for 60 seconds in binding buffer (10 mM sodium phosphate, 150 mM sodium chloride, 1% bovine serum albumin, 0.05% sodium azide). The tip was then dipped in 10 μg/mL biotinylated antibody in binding buffer. After 15 seconds, the tip was washed in binding buffer for 60 seconds, and then dipped in 0-24 nM Fc-human LAP. Analyte association was measured for 5 minutes. The tip was transferred to binding buffer alone, and analyte dissociation was measured for 5 minutes. The association and dissociation data were fit to a 1:1 binding model.

In assay [6] the target is T5, human GARP and human LAP-TGFβ1 co-expressed on P3U1 cells (human, UniProt Q14392 20-662).
T5 construct: whole, on cells; also called P3U1 cells over-expressing human GARP and LAP-TGFβ1
T5 sequence (chain, as listed by the source, chain 1 of 2): as the sequence (P01137 30-390 limits assumed) above
T5 sequence (Q14392 20-662, chain 2 of 2): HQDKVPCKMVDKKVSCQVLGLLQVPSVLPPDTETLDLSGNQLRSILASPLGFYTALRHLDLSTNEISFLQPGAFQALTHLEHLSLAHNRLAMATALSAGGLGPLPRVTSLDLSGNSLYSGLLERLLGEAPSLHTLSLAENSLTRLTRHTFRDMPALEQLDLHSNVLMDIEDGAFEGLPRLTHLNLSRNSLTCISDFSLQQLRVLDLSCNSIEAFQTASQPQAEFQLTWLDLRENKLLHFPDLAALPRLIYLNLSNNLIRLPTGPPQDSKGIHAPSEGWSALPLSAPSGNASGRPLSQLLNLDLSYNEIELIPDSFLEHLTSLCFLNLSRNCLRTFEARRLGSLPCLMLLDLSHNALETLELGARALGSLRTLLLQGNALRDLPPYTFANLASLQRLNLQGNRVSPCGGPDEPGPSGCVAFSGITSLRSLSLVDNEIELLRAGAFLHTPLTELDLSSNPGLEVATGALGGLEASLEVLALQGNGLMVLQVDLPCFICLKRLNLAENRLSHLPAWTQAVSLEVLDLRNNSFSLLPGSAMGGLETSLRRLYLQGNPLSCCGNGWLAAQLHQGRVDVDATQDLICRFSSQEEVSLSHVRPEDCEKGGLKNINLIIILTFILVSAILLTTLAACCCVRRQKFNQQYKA
As to the kind of experiment: flow cytometry, P3U1 cells. Here is the method:
This Example describes the binding of anti-LAP antibodies to LAP-TGFβ isoforms and LAP-TGFβ variants. In addition to antibodies 28G11_hIgG1, 22F9_hIgG1, and 20E6_hIgG1, anti-LAP antibodies 17G8_hIgG1, 24E3_hIgG1, and 2C9_(hyb) were also tested in this experiment. Briefly, 4×10⁵ each of (a) HT1080 cells, (b) HT1080 cells overexpressing human LAP-TGFβ1, (c) HT1080 cells overexpressing human LAP-TGFβ2, (d) HT1080 cells overexpressing human LAP-TGFβ3, (e) HT1080 cells overexpressing murine LAP-TGFβ1, (f) P3U1 cells, (g) P3U1 cells overexpressing LAP-TGFβ1 and GARP, and (h) P3U1 cells overexpressing LAP-TGFβ1 and LRRC33 were cultured in 96-well plates. The plates were centrifuged for 5 min at 1,500 rpm, liquid was removed, and cells were resuspended with 200 μL FACS buffer. The plates were centrifuged again, diluted primary antibody was added to each well, and the plates were incubated on ice for 20 minutes, followed by centrifugation. The cells were resuspended in 200 μL FACS buffer, centrifuged again, and resuspended in 50 μL diluted secondary antibody (Alexa647-anti-Human IgG or APC-anti-Mouse IgG). The plates were incubated on ice for 20 minutes in the dark, washed twice with 200 μL FACS buffer, and cells from each well (in 200 μL FACS buffer) were read on the Attune NXT instrument.
(In general: A flow cytometer gives signals particle by particle.)

The term Kd denotes the concentration at which binding is half-saturated. Low values mean tighter binding, high ones weaker binding. A word on the koff: it is a measure of how fast the partners let go of each other. Lower therefore signals slow dissociation. Usually kon stands for a measure of how fast the partners come together.

T3 sequence (P17246 30-390 limits assumed): as the sequence (P04202 30-390 limits assumed) above, with E93D, S99T, L131F, S134T, K202V counted along it
T1 sequence (chain, as listed by the source limits assumed, chain 1 of 2): as the sequence (P01137 30-390 limits assumed) above
T1 sequence (Q14766 1286-1466 limits assumed, chain 2 of 2): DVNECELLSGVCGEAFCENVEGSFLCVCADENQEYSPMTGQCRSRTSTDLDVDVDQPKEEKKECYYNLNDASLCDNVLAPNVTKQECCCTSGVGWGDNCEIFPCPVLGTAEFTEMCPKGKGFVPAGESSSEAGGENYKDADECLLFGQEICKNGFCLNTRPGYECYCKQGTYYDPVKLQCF

B1: 20E6_H0.2aL1_hIgG1 (antibody)
heavy: not shown
light: DIQMTQSPSSLSASVGDRVTITCRASQDITNYLNWYQQKPGKAVKLLIYYTSRLHSGVPSRFSGSGSGTDYTLTISSLQPEDFATYFCQQGDTLPWTFGQGTKLEIKRTVAAPSVFIFPPSDEQLKSGTASVVCLLNNFYPREAKVQWKVDNALQSGNSQESVTEQDSKDSTYSLSSTLTLSKADYEKHKVYACEVTHQGLSSPVTKSFNRGEC
notes: also called 20E6_H0.2aL1_IgG1; humanized 20E6
Take B1: the binding result in assay [1] is listed as “no binding (tested: 24 nM)”. For the same molecule, the Kd turned out to be 16.5 nM in assay [2], 13.4 nM in assay [3] and 14.2 nM in assay [4]. Also, the results for the koff in assay [2], in assay [3] and in assay [4] were 0.0355 s⁻¹, 0.0441 s⁻¹ and 0.0343 s⁻¹, respectively. Besides, the results for the kon in assay [2], in assay [3] and in assay [4] were 2.15e+06 M⁻¹ s⁻¹, 3.3e+06 M⁻¹ s⁻¹ and 2.42e+06 M⁻¹ s⁻¹, respectively.

B2: 22F9_hIgG1 (antibody, V domains shown)
VH: QVQLQQPGAELVKPGASVKLSCKASGYTFTSYWMHWVKQRPGQGLEWIGMIHPNSGSTNYNEKFKSKATLTVDKSSSTAYMQLSSLTSEDSAVYYCAYYDYDGFFDVWGTGTTVTVSS
VL: DIVLTQSPASLDVSLGQRATISCRASKSVSTSGYSYMHWYQQKSGQPPKLLIYLASNLESGVPARFSGSGSGTHFTLNIHPVEEEDAATYYCQHSRELPYTFGGGTKLEIK
For B2, in assay [5], the “Binding (nm)” value was found to be 0.27 nm. Further, the binding result in assay [6] is “binds”.
